In US20160108110A1 (Novartis, published 2016):
Positions count from the first letter of the chain named.

T1: Human ANGPTL4(26-406)-FLAG-His6-Avi (human, UniProt Q9BY76 24-406, biotin on the C-terminal Avi tag in the biotinylated preparations (immobilised form in SET, ELISA and Octet))
T1 sequence: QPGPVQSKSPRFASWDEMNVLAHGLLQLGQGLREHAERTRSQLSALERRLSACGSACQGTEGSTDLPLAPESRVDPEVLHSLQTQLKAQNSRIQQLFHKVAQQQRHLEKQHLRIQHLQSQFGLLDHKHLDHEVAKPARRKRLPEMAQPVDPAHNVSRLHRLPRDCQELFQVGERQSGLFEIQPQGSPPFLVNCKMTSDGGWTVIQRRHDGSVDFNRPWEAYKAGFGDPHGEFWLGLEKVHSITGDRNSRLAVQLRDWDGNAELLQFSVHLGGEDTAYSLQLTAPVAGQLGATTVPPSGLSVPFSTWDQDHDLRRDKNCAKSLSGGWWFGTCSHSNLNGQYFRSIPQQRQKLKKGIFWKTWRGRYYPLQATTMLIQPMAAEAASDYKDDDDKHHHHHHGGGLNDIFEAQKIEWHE

T2: Human ANGPTL3(17-460)-FLAG-His-Avi (human, UniProt Q9Y5C1 17-460, biotin on the C-terminal Avi tag)
T2 construct: also called full length human ANGPTL3; hANGPTL3
T2 sequence: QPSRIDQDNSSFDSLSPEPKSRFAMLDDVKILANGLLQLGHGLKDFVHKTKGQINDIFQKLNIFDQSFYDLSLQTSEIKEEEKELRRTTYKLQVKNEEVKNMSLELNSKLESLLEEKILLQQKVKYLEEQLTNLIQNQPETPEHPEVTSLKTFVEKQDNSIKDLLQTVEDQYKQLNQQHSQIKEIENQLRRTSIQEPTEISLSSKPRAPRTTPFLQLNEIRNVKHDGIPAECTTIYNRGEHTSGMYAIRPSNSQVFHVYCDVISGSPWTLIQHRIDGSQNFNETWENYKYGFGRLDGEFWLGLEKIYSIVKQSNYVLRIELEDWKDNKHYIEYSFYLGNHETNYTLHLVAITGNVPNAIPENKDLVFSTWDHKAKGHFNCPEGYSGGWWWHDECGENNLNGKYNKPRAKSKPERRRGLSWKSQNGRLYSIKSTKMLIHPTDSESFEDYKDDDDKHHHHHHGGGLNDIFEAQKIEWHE

B1: MOR021800 (antibody, human IgG1, lambda, V domains shown)
VH: QVQLVQSGAEVKKPGESLKISCKGSGYSFSTYWISWVRQMPGKGLEWMGIIDPSNSDTRYSPSFQGQVTISADKSISTAYLQWSSLKASDTAMYYCARVYGYVYMDVWGQGTLVTVSS
VL: DIELTQPPSVSVSPGQTASITCSGDNLGKKYAYWYQQKPGQAPVLVIYDKTKRPSGIPERFSGSNSGNTATLTISGTQAEDEADYYCASYDWYSSSYVFGGGTKLTVLG
notes: human IgG1
B2: MOR021823 (antibody, human IgG1, kappa, V domains shown)
VH: QVQLLESGGGLVQPGGSLRLSCAASGFTFSSYYLHWVRQAPGKGLEWVSYISGDGSSTYYADSVKGRFTISRDNSKNTLYLQMNSLRAEDTAVYYCARERSYAHDHWGQGTLVTVSS
VL: DIQMTQSPSSLSASVGDRVTITCRASQDIYIDLNWYQQKPGKAPKLLIYAASKLQSGVPSRFSGSGSGTDFTLTISSLQPEDFATYYCQQGYFLPQTFGQGTKVEIKR
notes: human IgG1
B3: MOR021830 (antibody, human IgG1, kappa, V domains shown)
VH: QVQLLESGGGLVQPGGSLRLSCAASGFTFSSYWMHWVRQAPGKGLEWVSGISYDGSSTNYADSVKGRFTISRDNSKNTLYLQMNSLRAEDTAVYYCARDSYIYDLHWGFDNWGQGTLVTVSS
VL: B2 VL with Y30S, I31S, D32Y, K53R, G91S, F93T, L94H, Q96Y
notes: human IgG1
B4: MOR021795 (antibody, human IgG1, lambda, V domains shown)
VH: QVQLVQSGAEVKKPGSSVKVSCKASGGTFNSYAISWVRQAPGQGLEWMGGIIPLFGFANYAQKFQGRVTITADESTSTAYMELSSLRSEDTAVYYCARESYDPYAFDVWGQGTLVTVSS
VL: DIELTQPPSVSVSPGQTASITCSGDNLGKYSASWYQQKPGQAPVLVIHQDNNRPSGIPERFSGSNSGNTATLTISGTQAEDEADYYCASRAHSMHVVFGGGTKLTVLG
notes: human IgG1
B5: MOR022761 (antibody, human IgG1, lambda, V domains shown)
VH: B4 VH with N30Q
VL: B4 VL with D1S, I2Y, P8L, S13A, P14L, S19R, G76R, T77A, E80G
notes: human IgG1
B6: MOR022762 (antibody, human IgG1, lambda, V domains shown)
VH: B4 VH with N30S
VL: B4 VL with D1S, I2Y, P8L, S13A, P14L, S19R, G76R, T77A, E80G
notes: human IgG1

These binders were tested against T1, Human ANGPTL4(26-406)-FLAG-His6-Avi (assay: cell-based or functional assay).
B1 was tested, and the “EC50 (read off the curve) [1(D]” value was ~0.5 nM.

The binders below were run against T1, Human ANGPTL4(26-406)-FLAG-His6-Avi (assay: ForteBio Octet, biotinylated antigen on streptavidin sensor, antibody in solution).
Description: Dissociation constants (KD) were determined for selected antibodies of the invention by using an Octet (ForteBio) kinetic binding assay. ForteBio 10× Kinetics Buffer (ForteBio, catalog number 18-5032) was diluted 10-fold with DPBS (Life Technologies, catalog number 14190-136), and the resulting solution was added (0.2 ml per well) to a 96-well plate (Greiner, catalog number 65520). Streptavidin sensors (ForteBio, catalog number 18-5020) were immersed in the solution and equilibrated for at least 10 min at room temperature. In a second 96-well plate (Greiner, catalog number 65520), sensors were washed in 1× Kinetics buffer, and then immersed in 200 ul of 25 nM biotinylated human ANGPTL4 or a biotinylated reference protein (for background substraction) for 1000 sec […] at room temperature. The sensors were then washed in 1× Kinetics buffer for 120 sec, and immersed in 200 ul of ANGPTL4 antibody diluted in 1× Kinetics buffer at various concentrations (serial 2-fold dilutions ranging from 25 nM to 0.4 nM), and antibody association was monitored for 480 seconds. The sensors were then transferred to a well containing 200 ul 1× Kinetics buffer, and antibody dissociation was monitored for 1200 seconds. Background-corrected association and dissociation curves were globally fitted by Octet Software (ForteBio) to generate association (kₒₙ) and dissociation (koff) rate constants, which in turn were used to calculate equilibrium dissociation constants (KD).
B1 showed a Kd of 0.134 nM, a koff of 5.6e-05 s⁻¹ and a kon of 420000 M⁻¹ s⁻¹.
For B2, the Kd was 0.047 nM, the koff was 2.5e-05 s⁻¹ and the kon was 530000 M⁻¹ s⁻¹.
Binder B3 has a Kd of 0.069 nM, a koff of 1.5e-05 s⁻¹ and a kon of 210000 M⁻¹ s⁻¹.
With B4 the Kd was 0.304 nM, the koff was 7.4e-05 s⁻¹ and the kon was 240000 M⁻¹ s⁻¹.

Biological target: T1, Human ANGPTL4(26-406)-FLAG-His6-Avi
Assay: cell-based or functional assay
Remark: another data set of the same source
In the case of B1, the “Reversal of human ANGPTL4 inhibition of human LPL EC50” value is reported as 1 nM.
In the case of B2, the “Reversal of human ANGPTL4 inhibition of human LPL EC50” value is reported as 1 nM.
B3 was tested, and the “Reversal of human ANGPTL4 inhibition of human LPL EC50” value was 4 nM.
In the case of B4, the “Reversal of human ANGPTL4 inhibition of human LPL EC50” value is reported as 12 nM.

The binders below were run against T2, Human ANGPTL3(17-460)-FLAG-His-Avi (assay: direct ELISA on streptavidin-coated MSD plate: biotinylated antigen immobilised at 1 nM, antibody at 1 nM, detection with Sulfo-tagged goat anti-human IgG).
Description: Direct ELISA assays were conducted to characterize antibody binding specificity of selected antibodies of the invention. The assay was performed as follows. A 384-well streptavidin-coated Meso Scale Discovery (MSD) plate was blocked by incubating the plate with 50 μL Blocking Buffer (PBS, pH 7.4, 5% w/v bovine serum albumin) per well at 22° C. for 1 hour with constant shaking (600 rpm). The blocked MSD plate was then washed 3 times with Wash Buffer (PBS, pH 7.4 and 0.05% v/v Tween-20) using a plate washer (BioTek). Following washing, biotinylated human ANGPTL4 proteins diluted in Assay Buffer (PBS, pH 7.4 without CaCl₂ or MgCl₂, 0.5% w/v fatty acid-free bovine serum albumin and 0.02% v/v Tween-20) were immobilized on the surface by incubation at 1 nM concentration (15 μL per well) at 22° C. for one hour: full length human ANGPTL4 (hANGPTL4), human ANGPTL4 coiled-coil domain (hANGPTL4-CCD) and full length human ANGPTL3 (hANGPTL3). The plate was then washed 3 times as described earlier. Antibody diluted to 1 nM concentration in Assay Buffer was then applied to the MSD plate […], and the plate was incubated for 1 hour at 22° C. with constant shaking (600 rpm). Bound antibodies were detected by adding 15 μL per well of a 1:500 dilution of Sulfo-tagged goat anti-human IgG. The plate was then incubated for one hour with constant shaking (600 rpm). The plate was washed 3 times, and then 15 μL/well of 1×MSD read buffer T was added and the plate was developed using a Sector Imager 6000 (Meso Scale Discovery). The data were transferred to Microsoft Excel for analysis and plotted using GraphPad Prism v6. […] An ANGPTL3-specific reference antibody was used as a positive control for the ANGPTL3 binding assay (FIG. 2).
B1: no binding (tested: 1 nM).
B2: no binding (tested: 1 nM).
B3: no binding (tested: 1 nM).
B4: no binding (tested: 1 nM).

Biological target: T1, Human ANGPTL4(26-406)-FLAG-His6-Avi
Assay: cell-based or functional assay
Remark: another data set of the same source
For B5, the “Reversal of human ANGPTL4 inhibition of human LPL EC50” value was 11 nM.
With B6 the “Reversal of human ANGPTL4 inhibition of human LPL EC50” value was 4 nM.

Biological target: T1, Human ANGPTL4(26-406)-FLAG-His6-Avi
Assay: cell-based or functional assay
Remark: another data set of the same source
B2 was tested, and the “EC50 (read off the curve) [1(E]” value was ~0.5 nM.
In the case of B3, the “EC50 (read off the curve) [1(F]” value is reported as ~1 nM.

These binders were tested against T1, Human ANGPTL4(26-406)-FLAG-His6-Avi (assay: SET assay (solution equilibrium titration, MSD), IgG).
Description: SET assays were performed as follows. In a 96-well polypropylene plate, a constant concentration of ANGPTL4 antibody was mixed with different concentrations of non-biotinylated human, cyno, mouse, or rat full-length ANPGLT4 protein, or human ANGPTL4 N-terminal domain protein (5-fold serial dilution) and incubated at 22° C. for 14 hours with constant shaking (300 rpm). On a pre-blocked 384-well streptavidin-coated Meso Scale Discovery (MSD) plate biotinylated ANGPTL4 (full-length human, cyno, mouse, or rat ANGPTL4, or human ANGPTL4 N-terminal domain) protein (1 nM, 15 μL per well) was immobilized and washed thereafter.
The equilibrium binding reactions (15 μL per well) were applied to the MSD plate with immobilized ANGPTL4 and incubated for 20 min at 22° C. The unbound material was removed by washing the plate 3 times with wash buffer, and the captured antibody was detected by adding Sulfo-tagged goat anti-human IgG (Meso Scale Discovery). After washing MSD read buffer T was added and the plate was developed using a Sector Imager 6000 (Meso Scale Discovery). The data were transferred to Microsoft Excel for analysis and plotted using GraphPad Prism v6. The KD values were determined by fitting the data to the following equation: […]
where Bₘₐₓ is the signal when no ANGPTL4 protein is present in solution, CAb is the constant concentration of ANGPTL4 antibody in solution, CAg is the concentration of ANGPTL4 in solution, and KD is the equilibrium dissociation constant.
Work on B1 yielded a Kd of 0.017 nM.
B2 showed a Kd of 0.009 nM.
B3 showed a Kd of 0.026 nM.
B5 gave a Kd of 0.189 nM.
In the case of B4, the Kd is reported as 0.036 nM.
With B6 the Kd was 0.107 nM.
